From the supplement of paper PMC10201428 come the findings set out here.

± gives the standard deviation of the averaged measurements.

The test system of the data set is VchCAST RNA-guided transposition machinery (E. coli BL21(DE3) host, lacZ target). The data set is described as follows: relative integration efficiency (T-RL orientation) vs wild-type transposon end (log2 (normalized fold change)); transposon end mutated: right end (5 bp flank + 75 bp right end); higher = more efficient transposition. Put shortly: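 Barcode abundances in input plasmids and in genomic integration junctions were obtained by PCR amplification and Illumina sequencing. These came from E. coli BL21(DE3) co-transformed with a T7-driven effector plasmid and a pUC57 donor carrying 1549 left-end or 1849 right-end transposon variants, then plated with 0.1 mM IPTG at 37°C for 18 h. Relative integration efficiency is the output/input fold change, normalised to reference barcodes and log-transformed.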
For the sequence “ACATTTGTTGATACAACCATAAAATGATAATTACACCCATAAATTGATAATTATCACAAACATAAATTGATATTGCCTCTGATCATAGTCAGACCAACATTGCTACGACCCGTATTCGCACCGACAC”, the “relative integration efficiency (log2)” value was -0.114 ± 0.033.

Turning to “ACATTTGTGGATACAACCATAAAATGATAATTACACCCATAAATTGATCATTATCACCCCCAATTTAACTATAACGCTCTGATCATAGTCAGACCAACATTGCTACGACCCGTATTCGCACCGACAC”, the “relative integration efficiency (log2)” value is -1.27 ± 0.17.

As for “ACATTTGTTGATACAACCATAAAATGATAATTACACCCAATAATTGATAATTATCACACCCATAAATTGATATTGCCTCTGATCATAGTCAGACCAACATTGCTACGACCCGTATTCGCACCGACAC”, the “relative integration efficiency (log2)” value was -0.277 ± 0.02.

Take “ACATTTGTTGATACAACCATAAAATGATAATTACTCTGATCATAGTCAGACCAACATTGCTACGACCCGTATTCGCACCGACACAACGACTATATTTATGGGTCACCCATAAATTGATAATTATCAG”: the “relative integration efficiency (log2)” value is -1.52 ± 0.14.

Turning to “ACATTTGTTGATACAACCATAAAATGATCATTACACCCATCAATTGATAATTATCCCACCCCATTTAACTATAACGCTCTGATCATAGTCAGACCAACATTGCTACGACCCGTATTCGCACCGACAC”, the “relative integration efficiency (log2)” value is -2.65 ± 0.32.

For the sequence “ACATTTGTCGATACAACCATAAAACGATAATTACACCCATAAATGGATAATTATCACACCCAATTTAACTATAACGCTCTGATCATAGTCAGACCAACATTGCTACGACCCGTATTCGCACCGACAC”, the “relative integration efficiency (log2)” value is -1.19 ± 0.15.

As for “AACTTTGTTGATACAACCATAAAATGATAATTACACCCATAAATTGATAATTATCACACCCATAAATTGATATTGCCTCTGATCATAGTCAGACCAACATTGCTACGACCCGTATTCGCACCGACAC”, the “relative integration efficiency (log2)” value was -0.217 ± 0.078.

With “ACATTTGTTGATACAACCATATATTGATATCTCCACCCATAAATTGATATTGCTCAGTGGGTATTTAACTATAACGCTCTGATCATAGTCAGACCAACATTGCTACGACCCGTATTCGCACCGACAC”, the “relative integration efficiency (log2)” value was -1.2 ± 0.17.

As to “ACATTTCTTGATACAACCATAAAATGATAATTACACCCATAAATGGATCATTATCACACCCAATTTAACTATAACGCTCTGATCATAGTCAGACCAACATTGCTACGACCCGTATTCGCACCGACAC”, the “relative integration efficiency (log2)” value is -2.34 ± 0.22.

“ACATTTGTGGATACAACCATAAAACGATAATTACACCCATAAATGGATAATTATCACACCCAATTTAACTATAACGCTCTGATCATAGTCAGACCAACATTGCTACGACCCGTATTCGCACCGACAC”: the “relative integration efficiency (log2)” value is -1.46 ± 0.2.

In the case of “ACATTTGTTGATACAACCATCCCCTGATAATTACACCCATAAATTGATAATTATCACACCCATAAATTGATATTGCCTCTGATCATAGTCAGACCAACATTGCTACGACCCGTATTCGCACCGACAC”, the “relative integration efficiency (log2)” value was -2.13 ± 0.056.

For “ACATTTGTTGATATGCAACCATAAAATGATAATTACACCCATAAATTGATAATTATCACACCCATAAATTGATATTGCCTCTGATCATAGTCAGACCAACATTGCTACGACCCGTATTCGCACCGAC”, the “relative integration efficiency (log2)” value was -6.537 ± 0.019.

Consider “ACATTTGTTGATACAACCATAAAATCATCATTACCCCCATCAATTGATAATTATCACACCCAATTTAACTATAACGCTCTGATCATAGTCAGACCAACATTGCTACGACCCGTATTCGCACCGACAC”, for which the “relative integration efficiency (log2)” value was -5.41 ± 0.15.

Consider “ACATTTGTTGATACAACCATAAAATGATAATTACACCCATAAATGTCGAATTATCACACCCATAAATTGATATTGCCTCTGATCATAGTCAGACCAACATTGCTACGACCCGTATTCGCACCGACAC”, for which the “relative integration efficiency (log2)” value is -1.83 ± 0.081.

“ACATTTGTTGATACAACCATAAAATGATAATTACACCCATAAATTGATAATTATCACACCCATAAATTGATATTGCCTCTGATAACTTCGTATAATGTATACTATACGAAGTTATTCGCACCGACAC”: the “relative integration efficiency (log2)” value was -1.3 ± 0.39.

In the case of “ACATTTGTTGATACACCCATAAATTGATATTGCCACCCATAAATTGATATTGCTCAGTGGGTATTTAACTATAACGCTCTGATCATAGTCAGACCAACATTGCTACGACCCGTATTCGCACCGACAC”, the “relative integration efficiency (log2)” value was -1.66 ± 0.34.

Take “ACATTTGCTGATAGAACCATATAATGATAATAACACCCATAAAATGATAATTATCACACCCAATTTAACTATAACGCTCTGATCATAGTCAGACCAACATTGCTACGACCCGTATTCGCACCGACAC”: the “relative integration efficiency (log2)” value was -2.94 ± 0.33.

For “ACATTTGTCGATACAACCATAAAACGATAATTACACCCATAAATTCATCATTATCACACCCAATTTAACTATAACGCTCTGATCATAGTCAGACCAACATTGCTACGACCCGTATTCGCACCGACAC”, the “relative integration efficiency (log2)” value is -2.2 ± 0.19.

As to “ACATTTGTCGATACAACCATAAAATGATAATTACCACCCCTAAATTGATAATTATCACACCCATTTAACTATAACGCTCTGATCATAGTCAGACCAACATTGCTACGACCCGTATTCGCACCGACAC”, the “relative integration efficiency (log2)” value was -3.12 ± 0.048.

“ACATTTGTTGATACAACCATATATTGATATCTCCAACCATAAAGTGATATTTATCACAACCATAAAGTGATATTTACTCTGATCATAGTCAGACCAACATTGCTACGACCCGTATTCGCACCGACAC”: the “relative integration efficiency (log2)” value was -0.409 ± 0.1.

For the sequence “ACATTTGTTGATACAACCATAAAAGGATCATTACCCCCATAAATTGATAATTATCACACCCCATTTAACTATAACGCTCTGATCATAGTCAGACCAACATTGCTACGACCCGTATTCGCACCGACAC”, the “relative integration efficiency (log2)” value was -2.55 ± 0.35.

Take “ACATTTGTTGATACAACCATAAAATGATAATTACAACCATATATTGATATCTCTCAGTGGGTATTTAACTATAACGCTCTGATCATAGTCAGACCAACATTGCTACGACCCGTATTCGCACCGACAC”: the “relative integration efficiency (log2)” value is -0.933 ± 0.28.

Consider “ACATTTGTTGATACAACCATAAGTTGATATTTTCAACCATATATTGATATCTCTCAGTGGGTATTTAACTATAACGCTCTGATCATAGTCAGACCAACATTGCTACGACCCGTATTCGCACCGACAC”, for which the “relative integration efficiency (log2)” value is -1.15 ± 0.24.

As for “ACATTTGTTGATACAACCATAAAATGATAATTACACCCATAAATTGATATTGCTCAGTGGGTATTTAACTATAACGCTCTGATCATAGTCAGACCAACATTGCTACGACCCGTATTCGCACCGACAC”, the “relative integration efficiency (log2)” value was -0.891 ± 0.23.

As to “ACATTTGTTGATACAACCATAAAATGATAATTACCCCCATAAATTGATAATTATCCCACCCCATTTAACTATAACGCTCTGATCATAGTCAGACCAACATTGCTACGACCCGTATTCGCACCGACAC”, the “relative integration efficiency (log2)” value was -1.32 ± 0.25.

As to “ACATTTGTTGATACACCCATAAATTGATAATTACAACCATAAAGTGATATTTATCACACCCATAAATTGATAATTACTCTGATCATAGTCAGACCAACATTGCTACGACCCGTATTCGCACCGACAC”, the “relative integration efficiency (log2)” value is -0.494 ± 0.16.

On to “ACATTTGTTGATACAAACATAAAATGATAATTACACACATAAATTGATAATTATCACACACATAAATTGATATTGCCTCTGATCATAGTCAGACCAACATTGCTACGACCCGTATTCGCACCGACAC”, for which the “relative integration efficiency (log2)” value was -1.41 ± 0.22.

For the sequence “ACATTTGTTGATACAACCATAAAATGATAATTAATAATTATTTATAATCAGCAACTTAACCACAAAACACCCATAAATTGATAATTAACAACACCCATAAATTGATATTGCCTCTGATCATAGTCAG”, the “relative integration efficiency (log2)” value was -4.56 ± 0.76.

On to “ACATTTGTTGATACAACCATAAAATGATAATTACTCTGATCATAGTCAGACCAACATTGCTACCACCCATAAATTGATAATTATCACACCCATAAATTGATATTGCGACCCGTATTCGCACCGACAC”, for which the “relative integration efficiency (log2)” value was -3.63 ± 0.078.

On to “ACATTTGTTGATACAACCATAAAATGATAATTACACCCATAAATTGATAATTATCACACAAATAAATTGATATTGCCTCTGATCATAGTCAGACCAACATTGCTACGACCCGTATTCGCACCGACAC”, for which the “relative integration efficiency (log2)” value is -1.11 ± 0.18.

On to “ACATTTGTTGATACTACCATATAATGATAATAACACCCATAAAATGATAATTATCACACCCAATTTAACTATAACGCTCTGATCATAGTCAGACCAACATTGCTACGACCCGTATTCGCACCGACAC”, for which the “relative integration efficiency (log2)” value is -1.45 ± 0.32.

On to “ACATTTGTTGATACAACCATAAAATGATAATTACACCCATAAATTGCGCCGGCGACACAAACGCCCGGTCGCGGTAAGAGGATCATAGTCAGACCAACATTGCTACGACCCGTATTCGCACCGACAC”, for which the “relative integration efficiency (log2)” value was -1.38 ± 0.23.
